Test results as given in US20040038369A1, “Airway-specific trypsin-like enzymes and method of using the same” (priority 2000, published 2004).

Tests used:
PAR-2 = target: T1, PAR-2 (Homo sapiens, UniProt P55085); test: Calcium influx in PAR-2-expressing insect cells; type: cell-based; details: AST 2 units/mL; trypsin, thrombin 0.1 to 10 units/mL; SFLLRNamide, SLIGRL 10 to 100 μM
T1 construct: expressed in transfected cells; host or cells: Sf9 insect cells infected with recombinant baculovirus VL-PAR (pVL1393)
T1 sequence (P55085 26-397): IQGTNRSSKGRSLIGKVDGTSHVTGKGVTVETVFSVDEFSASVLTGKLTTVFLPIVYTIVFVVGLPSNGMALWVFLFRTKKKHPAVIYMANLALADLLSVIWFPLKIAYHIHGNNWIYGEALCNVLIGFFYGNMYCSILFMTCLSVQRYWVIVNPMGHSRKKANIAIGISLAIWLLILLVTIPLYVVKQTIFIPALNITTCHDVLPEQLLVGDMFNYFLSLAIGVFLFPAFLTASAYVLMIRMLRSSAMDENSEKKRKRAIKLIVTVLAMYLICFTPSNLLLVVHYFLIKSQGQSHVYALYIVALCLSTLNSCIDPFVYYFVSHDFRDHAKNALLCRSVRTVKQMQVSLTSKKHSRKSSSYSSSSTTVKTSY
Method: The above-obtained recombinant baculovirus VL-PAR for expressing the PAR was used to infect 1.0×10^7 Sf9 cells sowed on a 75 cm^2 flask at an MOI=2, and was then left and stationally cultured at 27° C. for 40 hours. After the culture, the infected cells were recovered and then subjected to a calcium influx experiment to-confirm the function of the PAR.
The recovered infected cells (about 5×10^6 cells) were once washed with HEPES-Tyrode buffer solution-Ca^2+ (−) pH 7.4, and then suspended in 5 mL of HEPES-Tyrode buffer solution (containing Fura2-AM, 1 μg/mL) to load the Fura2-AM on the cells at 27° C. for 30 minutes. The suspension was centrifuged at 800 rpm at room temperature for 5 minutes to recover the cells. The cells were twice washed with HEPES-Tyrode buffer solution-Ca^2+ (−) pH 7.4 and then resuspended in 5 mL of HEPES-Tyrode buffer solution-Ca^2+ (−) pH 7.4. The cell suspension was mixed with 5 μL of 1M CaCl2 to give a final concentration of 1 mM CaCl2, and then incubated in a shaded state at room temperature for 5 minutes. The prepared Fura2-AM-loaded infected cells were dispensed into a 96 well plate in a volume of 100 μL/well, further subjected to the dispensation of HEPES-Tyrode buffer solution-C^2+ (+) pH 7.4 in a volume of 80 μL/well, and then assayed with a Fluorescence Drug Screening System (made by Hamamatsu Photonics Co.). Namely, [intensity of 500 nm fluorescent light due to 340 nm exciting light]/[intensity of 500 nm fluorescent light due to 380 nm exciting light] (reflecting the concentration of calcium in the cells) was assayed.

[1] = tested on: normal human airway epithelial cells; test: Calcium influx in normal human airway epithelial cells; type: cell-based; details: AST 2 units/mL; trypsin 10 to 100 units/mL; SFLLRNamide 100 μM
Method: The Ca^2+ influx due to the AST was examined with confluent normal epithelial cells adhered to three 10 cm dishes (purchased from BioWhittaker Corp.). The cells were peeled with a 10 mM EDTA/HEPES-Tyrode buffer solution for 10 minutes, recovered by a centrifugal treatment at 800 rpm at room temperature for 5 minutes, and then resuspended in 5 mL of HEPES-Tyrode buffer solution-Ca^2+ (−) pH 7.4. The recovered cells (about 1.2×10^6 cells) were suspended in 5 mL of HEPES-Tyrode buffer solution (1 μg/mL, containing Fura2-AM) to load the Fura2-AM to the cells at 37° C. for one hour. The cells were recovered by a centrifugal treatment at 800 rpm at room temperature for 5 minutes, twice washed with HEPES-Tyrode buffer solution-Ca^2+ (−) pH 7.4, and then resuspended in […] of HEPES-Tyrode buffer solution-Ca^2+ (−) pH 7.4. The cell suspension was mixed with 5 μL of 1M CaCl2 to give a final concentration of 1 mM CaCl2, and then incubated in a shaded state at room temperature for 5 minutes. The prepared Fura2-AM-loaded infected cells were dispensed into a 96 well plate in a volume of 100 μL/well, further subjected to the dispensation of HEPES-Tyrode buffer solution-Ca^2+ (+) pH 7.4 in a volume of 80 μL/well, and then assayed with Fluorescence Drug Screening System (Hamamatsu Photonics Co.). […]

Q: How did the “Ca2+ influx” value (PAR-2) turn out when “HAST: human airway-specific trypsin-like enzyme; propeptide moiety bound to trypsin-like protein moiety via a disulfide bond” was run?
A: observed

Q: And the “Ca2+ influx” value [1]?
A: observed
